Reference: patent publication US20120134979A1, “METHODS AND COMPOSITIONS FOR THE TREATMENT OF SICKLE CELL DISEASE” (priority 2010, published 2012)

Test system: SCD Tg mice
Experiment: Urine measurements (proteinuria, osmolality) in SCD Tg mice after chronic PEG-ADA
Type: in vivo, mouse
Method: Chronic PEG-ADA therapy. SCD transgenic mice, at eight weeks of age, were divided to two groups. One group was injected with 2.5 U PEG-ADA weekly for 8 weeks. This dosing protocol was designated SCD with PEG-ADA treatment regimen (SCD+PEG-ADA). Another group was injected with normal saline for 8 weeks; it was designated as SCD without PEG-ADA treatment regimen (SCD). Wild-type mice (C57Bl/6) used as control were injected with saline or PEG-ADA as with the SCD groups.
Mouse urine collection and measurements. Urine was collected using a metabolic cage (Bioseb, France) for proteinuria and creatinine analysis using a commercially available kit (Exocell, Philadelphia) as described Zhou, et al. Angiotensin receptor agonistic autoantibodies induce pre-eclampsia in pregnant mice. Nat. Med. 2008; 14(8):855-862). For urine osmolality analysis, mice were deprived of water for 24 hours, then urine was collected on Parafilm, transferred to 1.5 ml tube, the urine was diluted 10 times with distilled water and measured with vapor pressure osmometer (Wescor, Logan, Utah).

B1: PEG-ADA: polyethylene glycol-modified adenosine deaminase, a drug used to lower adenosine concentrations in ADA-deficient humans (protein, UniProt P56658 2-363, looked up)
Adenosine deaminase: AQTPAFNKPKVELHVHLDGAIKPETILYYGRKRGIALPADTPEELQNIIGMDKPLSLPEFLAKFDYYMPAIAGCREAVKRIAYEFVEMKAKDGVVYVEVRYSPHLLANSKVEPIPWNQAEGDLTPDEVVSLVNQGLQEGERDFGVKVRSILCCMRHQPSWSSEVVELCKKYREQTVVAIDLAGDETIEGSSLFPGHVKAYAEAVKSGVHRTVHAGEVGSANVVKEAVDTLKTERLGHGYHTLEDATLYNRLRQENMHFEVCPWSSYLTGAWKPDTEHPVVRFKNDQVNYSLNTDDPLIFKSTLDTDYQMTKNEMGFTEEEFKRLNINAAKSSFLPEDEKKELLDLLYKAYGMPSPASAEQCL
modifications: PEGylated
  proteinuria: decreased
  urine osmolality: increased
